Tested on: K4 kissing-loop RNA reporter
Assay: apparent KD of K4 kissing-loop reporter; higher = weaker reporter binding
Conditions: Eterna round: R107
Procedure: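 RNA-MaP round R107: designed RNA switches with theophylline, tryptophan, arginine or FMN aptamers are transcribed on-chip within common flanks. They are titrated with a labelled K4 kissing-loop RNA reporter in RNA-MaP buffer (100 mM Tris pH 7.5, 80 mM KCl, 4 mM MgCl2), without ligand or with the indicated ligand. Median apparent KD per design.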

[1] = input ligand: theophylline 20 uM
[2] = input ligand: tryptophan 2.4 mM
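Further: bound reporter read as fluorescence of individual clusters on recovered sequencing chips by microscopy, with normalized cluster intensities fitted with a binding model.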

Sequence | apparent KD of K4 kissing-loop reporter (input ligand: FMN 200 uM) [µM] | apparent KD of K4 kissing-loop reporter (input ligand: arginine 13.2 mM) [µM] | apparent KD of K4 kissing-loop reporter (input ligand: none) [µM] | apparent KD of K4 kissing-loop reporter [1] [µM] | apparent KD of K4 kissing-loop reporter [2] [µM]
GACGUUGAAGCGGCCGCCACUAGGAAGGGUACGGAGAGUACAUCUCACGGAGAGUGAUGUUCUCAUAGGACCGGGCUCAUAUCAA [theeternabot_sameState_KL_Trp_B_21] | 0.308 | 0.215 | 0.605 | 0.238 | 0.362
GAGGAUUGAACGGCCGCCACUGCGCGCAGCUGCAAUCGAGUGAUGUUCCAUCAGUUGUCCAGUUCCAGGACCGGGUUCCGAUGCC [theeternabot_exclusion_KL_Trp_B_12] | 0.499 | 0.245 | 0.401 | 0.535 | 0.471
GAUACGAAGCAGUGAUGUUGCUUAUGAGAAGGAGCGCACGAAAGUGCAGGUAGGUCGCUCAGCCAUGUGGACGAAAACGUCCACA [whbob_SS_Arginine_A_sa111] | 0.0902 | 0.109 | 0.0974 | 0.126 | 0.0781
GAUGAAUGCGGAAGGAGCGAGUUUUUGGGAGUGAUGUUCCCUGCAUAUGCACGUGGGAAAGCUCAGGUAGGUCGCCGCGCUUGUU [Same State Arginine B GF 28] | 0.183 | 0.244 | 0.324 | 0.208 | 0.204
GAUGGUGGCAGUGAAGUGAUGUUUCAUGAUACCAGUUUUAUAAGUAACCCUUGGCAGCAUCGUACGCAGCGUAGUGGACAUCACG [theeternabot_exclusion_KL_Theo_A_25] | 0.129 | 0.128 | 0.14 | 0.241 | 0.149
GAUGUUUGCCGAAGGAGCGAGUAUUCGCCAGUGAUGUUGGUGAGAUAUACACGUAUCAGUGCUCAGGUAGGUCGCGGCGCUUGUU [Same State Arginine B GF 27] | 0.123 | 0.107 | 0.129 | 0.135 | 0.117
GAUUCUGUUCGAAAGAACGGAAUCUCGGAAGGAGCGAGAGAAAUCUCAGGUAGGUCGCCGAAUUUUUGAUAGUGAUGUUAUCAUU [Arginine A K4 3] | 0.432 | 0.38 | 0.441 | 0.393 | 0.397
GAUUUAGAGGCGGCCGCCACUAGUGAUGUUAGUGAUGUUUGAUACUGAAUAUAUCUGCGAGUAGAUAGGACCGGGCCAGAUGGAG [plmfmullin] | 0.225 | 0.154 | 0.195 | 0.179 | 0.182
GAUUUAGAGGCGGCCGCCACUAGUGAUGUUAGUGAUGUUUGAUACUGUAUAUAUCGGCGUGUAGAUAGGACCGGGCCAGAUGGAG [tbqqmullin] | 0.281 | 0.157 | 0.235 | 0.229 | 0.221
GAUUUAGAGGCGGCCGCCACUAGUGAUGUUAGUGAUGUUUGAUAGGGAAUAUAUCAGCGAGUAGAUAGGACCGGGCCAGAUGGAG [gtggbmullin] | 0.248 | 0.183 | 0.203 | 0.189 | 0.167
GCAAACCUCAGUGAUGUUGAGUAAUCGGAAGGAGCGCGUGAAAACGCAGGUAGGUCGCCGAUACAUGAAGUAUCUUCGUGUUUGC [Arginine A K4 23] | 0.284 | 0.365 | 0.354 | 0.38 | 0.274
GCACACUAGUAAACUAGUGUGUUAACUGAAGGAGCGUGAAUAAUCACAGGUAGGUCGCAGUUUGUCAGUGAUGUUGACACGAGUG [Arg A SS t2] | 0.165 | 0.217 | 0.249 | 0.247 | 0.179
GCAGGACGAUGAGGAGGAUGAAUUACUGAAGGAGCGCAUAUGGUUGCAGGUAGGUCGCGGUGAACAAGUAUAGUGAUGUUAUAUC [SSArgA.R] | 0.755 | 0.179 | 0.138 | 0.471 | 1.05
GCAGUGAUGUUGCGAAUCGGCCAUGAUACAGAGGAUAUCGUGCCUUCGAGAAGGUUGUAUAGAGGAUACGAUAUUAUAAAUGACG [Same State FMN A GF 1] | 0.353 | 0.384 | 0.432 | 0.436 | 0.348
GCAGUGAUGUUGCGGAUGUACAGUGGAGUGCGAGGACCGGUACGGCCGCCACUCGUACAGAACAAGCUAAUAUAUCGAUAGGUGA [X] | 0.203 | 0.242 | 0.263 | 0.282 | 0.157
GCAGUGAUGUUGCGGAUGUACAGUGGCGUGCGAGGACCGGUACGGCCGCCACUCGUACAGAGCCAGCUAAUACAUCGAUAGGUGA [whbob_SS_Tryp_A_m6] | 0.289 | 0.177 | 0.239 | 0.296 | 0.322
GCAGUGAUGUUGCGGAUGUACAGUGGCGUGCGAGGACCGGUACGGCCGCCACUCGUACAGAGCCAGCUAAUACAUCGAUUGGUGA [whbob_SS_Tryp_A_m7] | 0.387 | 0.176 | 0.206 | 0.157 | 0.212
GCAGUGAUGUUGCUGAUGUACAGUGGGAUACGAGGACCGGUACGGCCGCCACUCGUACAGAACUUAUUAAUACAUCGAUAAGUGA [XIV] | 0.534 | 0.612 | 0.71 | 0.643 | 0.687
GCCGUACGCAUGGAUACCAGCAAUCAAACGUCAUGCGAAGUGAUGUUUCGCUUACGGUAGUGCCCUUGGCAGCCAUGCGUACGGC | 0.142 | 0.124 | 0.123 | 0.0912 | 0.13
GCCGUACGCAUGGAUACCAGCACUCGUUGAGUGAUGUUCACGAGGUGGUAUUCGACGGGCUGCCCUUGGCAGCCAUGCGUACGGC | 0.111 | 0.0873 | 0.102 | 0.099 | 0.121
GCCGUACGCAUGGAUACCAGCAGAACUGCCCUCCCAGUGAUGUUGGGAGGAUCUUUCCUAUGCCCUUGGCAGCCAUGCGUACGGC | 0.148 | 0.113 | 0.126 | 0.117 | 0.117
GCCGUACGCAUGGAUACCAGCAUCGACUCAUAUACAGUGAUGUUGUGUAAUGACCUCAUUUGCCCUUGGCAGCCAUGCGUACGGC | 0.471 | 0.291 | 0.62 | 0.857 | 0.8

Sequence | apparent KD of K4 kissing-loop reporter (input ligand: FMN 200 uM) [µM] | apparent KD of K4 kissing-loop reporter (input ligand: arginine 13.2 mM) [µM] | apparent KD of K4 kissing-loop reporter (input ligand: none) [µM] | apparent KD of K4 kissing-loop reporter [1] [µM] | apparent KD of K4 kissing-loop reporter [2] [µM]
GCCGUAGAUUGAAGGAGCGGCUUCAUCAAAUCUCUUGCCCGCACCAGUGAUGUUGGUGUUAGCCAGGUAGGUCGCAAUCUACGGC | 0.577 | 0.376 | 0.583 | 0.493 | 0.465
GCCUGAGCACGAAGGAGCGCCGUGACAGGUUACUGCCUUGGGCAGUGAUGUUGCUCAAUCUGGCAGGUAGGUCGCGUGCUCAGGC | 0.165 | 0.161 | 0.162 | 0.131 | 0.167
GCCUGUGCGCGAAGGAGCGCCGUGACAGGUUACUGCCUUGGGCAGUGAUGUUGCUCAAUCUGGCAGGUAGGUCGCGUGCACAGGC | 0.236 | 0.187 | 0.201 | 0.156 | 0.192
GCGAACAUUCGCAGUGAUGUUGCGACGGAAGGAGCGCGUGAAAACGCAGGUAGGUCGCCGACAACAUUAAUUUUAAUGUGUUCGC [Arginine A K4 28] | 0.411 | 0.308 | 0.425 | 0.356 | 0.256
GCGAAGAGAGAAGGAUAUUAGUAAUGCGUCAUGCGCCCUUACCAGUUAGUGAUGUUAACAAUACAUUAAGAAGGUCUCGGAAUCC [theeternabot_sameState_KL_FMN_B_50] | 0.297 | 0.169 | 0.187 | 0.215 | 0.185
GCGCAUGUUAAAGGAUAUAGCAGGUGAUACAAGAAAGUGAGUGAUGUUUAUGUAGAUGAUGAUAUGUUAGAAGGUUAACAAGCGC [abcdefghijklmnop] | 0.693 | 0.639 | 0.842 | 0.788 | 0.6
GCGGCCCAGCCGGAUACCAGUGACCCGCUGGGAACCGCGGGCCCAGAGUGAUGUUCGGGACACCCUUGGCAGCCGCCUGGGACGC [#2 Same State - Theophylline B Attempt #17 (HarryS)] | 0.588 | 0.126 | 0.546 | 0.334 | 0.193
GCUAGCAUGGCAGGAUAUAGCAAUAGGAGUGAUGUUCCUUGGUAGGUGAGUGAUGUUCACUACCAACUAGAAGGGCCAUGCUAGC | 0.139 | 0.111 | 0.127 | 0.108 | 0.129
GCUAGGAUGGCAGGAUAUAGUUCGUGAGUGAUGUUCAAAGAACUAAGAGGGACACCUCAUUCUAAACUAGAAGGGCCAUCCUAGC | 0.246 | 0.275 | 0.276 | 0.421 | 0.337
GCUAUGGUAGGAAGGAGCGCUUAUUUAUUAAUAAGAGUGAUGUUCGAUAGUAGAUAUUUAUAGCAGGUAGGUCGCCUACUAUAGC [Arginine B K4 12] | 0.186 | 0.196 | 0.167 | 0.341 | 0.167
GCUAUGGUAGGAAGGAGCGCUUAUUUAUUUUUACGAGUGAUGUUCGGUAGUAGAUAGUUAAAGCAGGUAGGUCGCCUACUAUAGC [Arginine B K4 16] | 0.141 | 0.112 | 0.148 | 0.135 | 0.123
GCUAUGGUAGGAAGGAGCGCUUGCUCGGUCAUAUGAGUGAUGUUCGAGACUGAGCAUUUAUAGCAGGUAGGUCGCCUACUAUAGC [Arginine B K4 9] | 0.235 | 0.206 | 0.182 | 0.242 | 0.177
GGAAAGCCAGUGAUGUUGGCAUAAACUGAAGGAGCGCGUGAAAACGCAGGUAGGUCGCAGAACCUUGCCAACUAUAUUAUUUACC [Ex Arginine A K4 21] | 0.128 | 0.221 | 0.16 | 0.221 | 0.135
GGACAAGCAUUAGGAUAUAUAGAGCGAAACGCAAUUGAGUGAUGUUCAAAAGCAUAGGGCGAGGAAAUAGAAGGAAUGCACGGGC [Default title] | 0.192 | 0.18 | 0.216 | 0.151 | 0.152
GGAGGGAUCUCGGCCGCCACUCAUAAGAAAUGGGCCUCAGAGAUAUAGUGAUGUUAUGUAAAGAAGAGGACCGGGAGAAAGAAGG [ExTryptoB.Db] | 0.148 | 0.141 | 0.141 | 0.135 | 0.144
GGAUAGGAUAGAGGAUAUGGCUUACGCAGAAAUAACUUAUUGUGUAAAUCCAUAGGGAGUGAUGUUCCAGAAGGCUGUCCUAUCG [MatMod 17 - Jieux - Exclusion - FMN B] | 0.415 | 0.212 | 0.251 | 0.244 | 0.201
GGAUCCACCAGUGAUGUUGGAGAAAACUCCAAGGAUAUGACGAAAGUCAGAAGGUGGUAAUAAGACGUCAAAGACGUCGGAUCCA [FmnA 19 #SwitchBubble #K4Early] | 1.4 | 0.149 | 0.101 | 0.323 | 0.15
GGAUCCACCAGUGAUGUUGGAGAAAACUCCAAGGAUAUGACGAAAGUCAGAAGGUGGUAGACUGGUCAAAGUCCGGUCGGAUCCA [FmnA10 U66] | 0.297 | 0.0774 | 0.338 | 0.297 | 0.262
GGAUCCACCAGUGAUGUUGGAGAAAACUCUAAGGAUAUGACGAAAGUCAGAAGGUGGUAGACUGGUCAAAGUCCGGUCGGAUCCA [FmnA10 U30+U66] | 0.237 | 0.191 | 0.577 | 0.756 | 0.249
GGAUCCACCAGUGAUGUUGGAGAAAACUUCAAGGAUAUGACGAAAGUCAGAAGGUGGUAGACUGGGCAAAGUCCGGUCGGAUCCA [FmnA10 U29+G66] | 0.543 | 0.228 | 0.296 | 0.402 | 0.274
GGAUCCACCAGUGAUGUUGGAGUAAUCUCCAAGGAUAUGACGAAAGUCAGAAGGUGGUAAAUAGACGUCAAAGACGUCGGAUCCA [FmnA 22 #SwitchBubble #K4Early] | 0.499 | 0.0783 | 0.0979 | 0.234 | 0.069
GGAUCUGCCAGUGAUGUUGGUUAAUAUAUCAAGGAUAUGACGAAAGUCAGAAGGUGAAAGACUGGACAAAGUCCAGUCGGAUCCA [KL-SSFMN-A20] | 0.237 | 0.312 | 0.352 | 0.46 | 0.27

Reference: the supplement of paper PMC9170038
